The values that follow come from paper PMC3204382.

One series addresses FadR_vc (Vibrio cholerae, UniProt Q9KQU8 1-279). The experiment in a line: EMSA. A general note: Mobility shift assays separate free from complexed probe on a gel.
In the next series the target is FadR_ec (Escherichia coli, UniProt P0A8V6 1-239). Kind of series: EMSA.
Chain of FadR_ec (P0A8V6 whole entry): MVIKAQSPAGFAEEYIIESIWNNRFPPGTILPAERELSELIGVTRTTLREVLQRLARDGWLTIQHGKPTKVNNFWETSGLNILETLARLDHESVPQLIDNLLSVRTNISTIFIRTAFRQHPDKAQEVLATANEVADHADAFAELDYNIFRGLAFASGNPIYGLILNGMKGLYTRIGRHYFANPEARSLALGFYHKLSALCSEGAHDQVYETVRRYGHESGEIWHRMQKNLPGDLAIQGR

Chain of FadR_vc (Q9KQU8 whole entry): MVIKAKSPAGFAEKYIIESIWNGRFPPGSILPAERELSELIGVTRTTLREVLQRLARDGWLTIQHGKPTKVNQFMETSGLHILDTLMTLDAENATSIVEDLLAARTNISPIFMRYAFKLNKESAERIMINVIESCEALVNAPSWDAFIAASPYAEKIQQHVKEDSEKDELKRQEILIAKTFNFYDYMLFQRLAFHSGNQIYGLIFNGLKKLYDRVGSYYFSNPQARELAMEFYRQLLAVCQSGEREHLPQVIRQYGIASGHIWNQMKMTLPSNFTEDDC

B1: plsB_vc FadR site probe (39 bp) (dsDNA)
DNA 1: TTAAATTAAAAGGTTTGACCAGTTTCTGGTATTCTTGGC
DNA 2: GCCAAGAATACCAGAAACTGGTCAAACCTTTTAATTTAA
B1: the binding result in the series with FadR_vc and in the series with FadR_ec was “binds” throughout.
